# B1: EGF: growth factor in mammosphere culture media, 20 ng/ml (protein, UniProt P01133 23-1207, looked up)
# Pro-epidermal growth factor: PQHWSCPEGTLAGNGNSTCVGPAPFLIFSHGNSIFRIDTEGTNYEQLVVDAGVSVIMDFHYNEKRIYWVDLERQLLQRVFLNGSRQERVCNIEKNVSGMAINWINEEVIWSNQQEGIITVTDMKGNNSHILLSALKYPANVAVDPVERFIFWSSEVAGSLYRADLDGVGVKALLETSEKITAVSLDVLDKRLFWIQYNREGSNSLICSCDYDGGSVHISKHPTQHNLFAMSLFGDRIFYSTWKMKTIWIANKHTGKDMVRINLHSSFVPLGELKVVHPLAQPKAEDDTWEPEQKLCKLRKGNCSSTVCGQDLQSHLCMCAEGYALSRDRKYCEDVNECAFWNHGCTLGCKNTPGSYYCTCPVGFVLLPDGKRCHQLVSCPRNVSECSHDCVLTSEGPLCFCPEGSVLERDGKTCSGCSSPDNGGCSQLCVPLSPVSWECDCFPGYDLQLDEKSCAASGPQPFLLFANSQDIRHMHFDGTDYGTLLSQQMGMVYALDHDPVENKIYFAHTALKWIERANMDGSQRERLIEEGVDVPEGLAVDWIGRRFYWTDRGKSLIGRSDLNGKRSKIITKENISQPRGIAVHPMAKRLFWTDTGINPRIESSSLQGLGRLVIASSDLIWPSGITIDFLTDKLYWCDAKQSVIEMANLDGSKRRRLTQNDVGHPFAVAVFEDYVWFSDWAMPSVMRVNKRTGKDRVRLQGSMLKPSSLVVVHPLAKPGADPCLYQNGGCEHICKKRLGTAWCSCREGFMKASDGKTCLALDGHQLLAGGEVDLKNQVTPLDILSKTRVSEDNITESQHMLVAEIMVSDQDDCAPVGCSMYARCISEGEDATCQCLKGFAGDGKLCSDIDECEMGVPVCPPASSKCINTEGGYVCRCSEGYQGDGIHCLDIDECQLGEHSCGENASCTNTEGGYTCMCAGRLSEPGLICPDSTPPPHLREDDHHYSVRNSDSECPLSHDGYCLHDGVCMYIEALDKYACNCVVGYIGERCQYRDLKWWELRHAGHGQQQKVIVVAVCVVVLVMLLLLSLWGAHYYRTQKLLSKNPKNPYEESSRDVRSRRPADTEDGMSSCPQPWFVVIKEHQDLKNGGQPVAGEDGQAADGSMQPTSWRQEPQLCGMGTEQGCWIPVSSDKGSCPQVMERSFHMPSYGTQTLEGGVEKPHSLLSANPLWQQRALDPPHQMELTQ
# modifications: Pro-epidermal growth factor
# notes: growth factor in mammosphere culture media, 20 ng/ml
# Tested on: T47D cells
# Test: Mammosphere formation in T47D cells
# Format: cell-based, human
# Settings: T47D cells, EGF 20 ng/ml, 14 days
# Description: Primary Mammospheres: Adherent cells were washed with PBS and dissociated enzymatically in 0.25% trypsin-EDTA (Invitrogen Corporation, Carlsbad, Calif.). Cells were sieved through a 40-μm sieve (BD FALCON, BD Biosciences, Bedford, Mass.) and analyzed microscopically for single-cellularity. Single cells were plated in ultra-low attachment plates (Corning, Inc., Corning, N.Y.) and cultured in a humid incubator. Cells were grown in a serum-free mammary epithelial basal medium (MEBM; Lonza Group, Basel, Switzerland) containing 1% B27 Supplement (Invitrogen Corporation, Carlsbad, Calif.), 1% penicillin-streptomycin (Invitrogen Corporation, Carlsbad, Calif.), 5 μg/ml insulin (Invitrogen Corporation, Carlsbad, Calif.), 20 ng/ml EGF (Sigma-Aldrich, St. Louis, Mo.), 1 ng/ml hydrocortisone (Sigma-Aldrich, St. Louis, Mo.), and 100 μM β-mercaptoethanol. […] Mammosphere Forming Efficiency (MFE) % was calculated by the number of mammospheres per well/number of cells seeded per well.
# Secondary Mammospheres: Primary mammospheres were collected by centrifugation (5 min, 1000 rpm), and dissociated enzymatically in 0.25% typsin-EDTA. Cells were sieved through a 40-μm tip strainer (Bel-Art SP Scienceware, South Wayne, N.J.) and analyzed microscopically for single-cellularity. […] Mammosphere Forming Efficiency (MFE) % was calculated by the number of mammospheres per well/number of cells seeded per well. […]
molecule,measurement,value
B1,mammosphere formation on removal and add-back of EGF,clear requirement for growth factor signaling

# Reference: patent US10942183B2, “Methods of detecting progesterone receptor and of detecting an expression level” (REGENTS OF THE UNIVERSITY OF MINNESOTA, priority 2017, dated 2021)
